Molecular target: T1, human FSH receptor (human, UniProt P23945 18-695)
T1 sequence (looked up): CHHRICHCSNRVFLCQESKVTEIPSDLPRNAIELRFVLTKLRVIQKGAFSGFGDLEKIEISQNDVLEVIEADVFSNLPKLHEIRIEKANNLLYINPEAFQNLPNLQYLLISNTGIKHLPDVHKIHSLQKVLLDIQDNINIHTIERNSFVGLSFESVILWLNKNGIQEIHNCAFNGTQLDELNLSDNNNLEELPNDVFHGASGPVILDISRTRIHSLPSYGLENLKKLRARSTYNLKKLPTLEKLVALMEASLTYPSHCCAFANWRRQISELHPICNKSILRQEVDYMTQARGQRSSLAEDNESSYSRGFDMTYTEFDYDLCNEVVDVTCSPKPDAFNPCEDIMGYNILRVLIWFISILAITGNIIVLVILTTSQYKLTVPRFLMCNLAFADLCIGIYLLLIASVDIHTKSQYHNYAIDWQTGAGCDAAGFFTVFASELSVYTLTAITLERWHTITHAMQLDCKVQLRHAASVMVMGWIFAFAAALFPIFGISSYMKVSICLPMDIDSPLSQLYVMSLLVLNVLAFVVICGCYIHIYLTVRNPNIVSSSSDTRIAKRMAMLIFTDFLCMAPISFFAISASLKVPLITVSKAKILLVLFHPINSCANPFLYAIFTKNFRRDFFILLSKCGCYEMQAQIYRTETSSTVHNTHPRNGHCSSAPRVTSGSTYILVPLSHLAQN
Experiment: cell-based or functional assay

EC50 M (cAMP production in CHO-FSHR cells): 0.414 nM
B1: Clone 15C- α D3N/β GM1 (ligand)
chain 1: not shown
chain 2: NSCELTNITIAIEKEECRFCISINTTWCAGYCYTRDLVYKDPARPKIQKTCTFKNLTYETVRVPGCAHHADSLYTYPVATQCHCGKCDSDSTDCTVRGLGPSYCSFGEMKE

From patent publication US20080280832A1 (LABORATOIRES SERONO, published 2008)
